Measurements from publication PMC11022716.
One block for each binder: values may come before it.

Tests used:
73‐DY (human) = test: SPR; BIAcore 8K, 25 °C, HBS‐EP+ buffer; antibodies with hIgG‐Fc immobilised on a Series S Protein A sensor chip at 300 RU; recombinant mouse FcγRs injected at 400 to 3.125 nM, 30 µL/min, 90 s association, 120 s dissociation; 1:1 Langmuir binding model
hu1‐23 (human) = test: as above
73 (human) = test: as above
rc.73-DD (mouse) = test: SPR; BIAcore 8K, 25 °C, HBS-EP+; antibodies with mIgG-Fc captured on a CM5 chip with immobilised anti-mouse antibodies; FcγRs injected at 400 to 3.125 nM (1:2 dilutions), 30 µL/min, 90 s association, 120 s dissociation; 1:1 Langmuir model
rc.hu1-23 (mouse) = test: as above
Sequence of rc.hu1-23 (mouse) (heavy, as listed by the source, chain 1 of 2): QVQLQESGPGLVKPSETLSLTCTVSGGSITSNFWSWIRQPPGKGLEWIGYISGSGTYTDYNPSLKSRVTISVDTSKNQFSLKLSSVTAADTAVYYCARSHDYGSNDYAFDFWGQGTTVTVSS
Sequence of rc.hu1-23 (mouse) (light, as listed by the source, chain 2 of 2): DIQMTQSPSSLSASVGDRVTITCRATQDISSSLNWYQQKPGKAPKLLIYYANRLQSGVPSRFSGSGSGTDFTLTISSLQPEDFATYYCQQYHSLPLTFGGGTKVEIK

Sequence of 73 (human) (heavy, as listed by the source, chain 1 of 2): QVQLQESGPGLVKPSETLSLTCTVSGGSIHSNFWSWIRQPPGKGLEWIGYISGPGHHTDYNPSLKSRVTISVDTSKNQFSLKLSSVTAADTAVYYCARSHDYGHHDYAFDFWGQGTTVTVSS
Sequence of 73 (human) (light, as listed by the source, chain 2 of 2): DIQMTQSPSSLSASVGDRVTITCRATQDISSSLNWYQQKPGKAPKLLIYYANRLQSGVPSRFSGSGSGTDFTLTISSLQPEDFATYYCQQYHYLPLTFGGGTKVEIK

Kd (73‐DY (human)): 11.1 nM
Kd (hu1‐23 (human)): 54.1 nM
Kd (73 (human)): 45.2 nM
B2: mouse FcγRI (receptor)
chain: EVVNATKAVITLQPPWVSIFQKENVTLWCEGPHLPGDSSTQWFINGTAVQISTPSYSIPEASFQDSGEYRCQIGSSMPSDPVQLQIHNDWLLLQASRRVLTEGEPLALRCHGWKNKLVYNVVFYRNGKSFQFSSDSEVAILKTNLSHSGIYHCSGTGRHRYTSAGVSITVKELFTTPVLRASVSSPFPEGSLVTLNCETNLLLQRPGLQLHFSFYVGSKILEYRNTSSEYHIARAEREDAGFYWCEVATEDSSVLKRSPELELQVLGPQSSAP

Kd (73‐DY (human)): 9.72 nM
Kd (hu1‐23 (human)): 300 nM
Kd (73 (human)): 379 nM
Kd (rc.73-DD (mouse)): 2.97 nM
Kd (rc.hu1-23 (mouse)): 196 nM
B4: mouse FcγRII (receptor)
chain: THDLPKAVVKLEPPWIQVLKEDTVTLTCEGTHNPGNSSTQWFHNGRSIRSQVQASYTFKATVNDSGEYRCQMEQTRLSDPVDLGVISDWLLLQTPQLVFLEGETITLRCHSWRNKLLNRISFFHNEKSVRYHHYSSNFSIPKANHSHSGDYYCKGSLGRTLHQSKPVTITVQGPKSSRSLP

The next lines start with the binder.

B1: mouse FcγRIV (receptor)
chain: GLQKAVVNLDPKWVRVLEEDSVTLRCQGTFSPEDNSIKWFHNESLIPHQDANYVIQSARVKDSGMYRCQTALSTISDPVQLEVHMGWLLLQTTKWLFQEGDPIHLRCHSWQNRPVRKVTYLQNGKGKKYFHENSELLIPKATHNDSGSYFCRGLIGHNNKSSASFRISLGDPGSPSMFPPWHQ
Kd (73‐DY (human)): 54.3 nM
Kd (hu1‐23 (human)): 41.8 nM
Kd (73 (human)): 42.6 nM

B3: mouse FcγRIII (receptor)
chain: ALPKAVVKLDPPWIQVLKEDMVTLMCEGTHNPGNSSTQWFHNGRSIRSQVQASYTFKATVNDSGEYRCQMEQTRLSDPVDLGVISDWLLLQTPQRVFLEGETITLRCHSWRNKLLNRISFFHNEKSVRYHHYKSNFSIPKANHSHSGDYYCKGSLGSTQHQSKPVTITVQDPATTSSISLVWYHT
Kd (73‐DY (human)): 12 nM
Kd (hu1‐23 (human)): 233 nM
Kd (rc.73-DD (mouse)): 11.8 nM
Kd (rc.hu1-23 (mouse)): 2680 nM
